Measured values: paper PMC3343115, “Selective Blockade of Trypanosomatid Protein Synthesis by a Recombinant Antibody Anti-Trypanosoma cruzi P2β Protein” (PLoS ONE, 2012)

Assays:
[1] = molecular target: T1, R13 peptide (C-terminal epitope of T. cruzi P1α, P1β, P2α and P2β) (Trypanosoma cruzi); assay: SPR; competition on BIACORE 3000: TcP2β-GST immobilised by amine coupling at 0.05 pmol/mm2; scFv C5 pre-incubated 30 min with different concentrations of peptide, injected 2 min, 3 min dissociation, 30 µl/min; HBS-EP buffer pH 7.4, 150 mM NaCl; IC50 from the decrease in the initial linear kinetics; settings: both partners purified
T1 construct: the text prints only the motif 3-EdDDmGF-9; the peptide is also in PDB 3SGE; source: synthetic peptide
T1 chain: EEEDDDMGFGLFD

[2] = molecular target: T2, TcP2β-GST fusion protein (Trypanosoma cruzi ribosomal P2β protein) (Trypanosoma cruzi, strain , UniProt P26795); assay: as above; settings: both partners purified
T2 construct: Trypanosoma cruzi ribosomal P2β protein (TcP2β), recombinant; also called recombinant TcP2β protein

[3] = molecular target: T3, P015 peptide (C-terminal region of T. cruzi P0) (Trypanosoma cruzi, UniProt P26796); assay: as above; settings: both partners purified
T3 construct: C-terminal region of the Trypanosoma cruzi ribosomal P0 protein (TcP0), called P015; aspartic acid in place of glycine 8 of R13; source: synthetic peptide
T3 chain: EEEDDDDDFGMGALF

[4] = molecular target: T. cruzi ribosomal P0 protein (Trypanosoma cruzi, strain  in …, UniProt P26796); assay: cell-based or functional assay
T. cruzi ribosomal P0 protein, sequence (P26796 whole entry, looked up): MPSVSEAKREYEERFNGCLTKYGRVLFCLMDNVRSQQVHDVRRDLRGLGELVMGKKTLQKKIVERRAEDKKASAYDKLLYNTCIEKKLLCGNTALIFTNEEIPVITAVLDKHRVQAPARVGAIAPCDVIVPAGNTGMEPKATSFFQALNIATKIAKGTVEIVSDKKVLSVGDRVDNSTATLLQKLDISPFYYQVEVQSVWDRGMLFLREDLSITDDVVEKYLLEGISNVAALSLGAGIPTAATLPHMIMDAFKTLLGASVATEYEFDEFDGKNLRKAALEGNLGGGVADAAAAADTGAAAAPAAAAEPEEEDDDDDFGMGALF

T2 sequence (P26795 whole entry, the tested form may be a part): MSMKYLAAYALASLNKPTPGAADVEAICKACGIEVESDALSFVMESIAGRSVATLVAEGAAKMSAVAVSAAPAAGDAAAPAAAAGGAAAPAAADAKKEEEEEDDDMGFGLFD

B1: single chain recombinant antibody C5 (scFv C5) (scFv, V domains shown)
VH: EVQLEESGGRLVQPKGSLKLSCAASGFSFNTNAMNWVRQAPGKGLEWVARIRSKINNYSTYYADSVKDRFTISRDDSQSMLYLQMNNLKTEDTAMYYCVRGTTYWGQGTLVTVSA
VL: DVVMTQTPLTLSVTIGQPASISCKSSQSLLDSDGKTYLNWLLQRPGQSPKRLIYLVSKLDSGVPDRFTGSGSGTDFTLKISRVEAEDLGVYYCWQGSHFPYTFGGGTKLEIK
notes: VH of scFv C5, which derives from the parental monoclonal antibody 17.2; heavy chain variable domain of mAb 17.2 in PDB 3SGE (complex with R13) and 3SGD (apo); linker between the variable domains; VL of scFv C5, which derives from the parental monoclonal antibody 17.2; light chain variable domain of mAb 17.2 in PDB 3SGE (complex with R13) and 3SGD (apo); The His tag is known from detection with …
IC50 [1]: 2370 ± 230 nM | binding result [2]: binds | IC50 [3]: 22600 ± 2030 nM | inhibition of in vitro protein synthesis ([35S]-methionine incorporation) by T. cruzi ribosomes (about 130 nM), dose-response of scFv C5, IC50 [4]: ~62.4 nM
